What was measured:
[1] = target: dROS1 ECR construct 1-9 (126-2113) (Drosophila, UniProt P13368 126-2113); assay: SPR
[2] = target: T1, dROS1 ECR construct 1-4 (126-1298), His-tagged (Drosophila, UniProt P13368 126-1298); assay: SPR
T1 sequence (looked up): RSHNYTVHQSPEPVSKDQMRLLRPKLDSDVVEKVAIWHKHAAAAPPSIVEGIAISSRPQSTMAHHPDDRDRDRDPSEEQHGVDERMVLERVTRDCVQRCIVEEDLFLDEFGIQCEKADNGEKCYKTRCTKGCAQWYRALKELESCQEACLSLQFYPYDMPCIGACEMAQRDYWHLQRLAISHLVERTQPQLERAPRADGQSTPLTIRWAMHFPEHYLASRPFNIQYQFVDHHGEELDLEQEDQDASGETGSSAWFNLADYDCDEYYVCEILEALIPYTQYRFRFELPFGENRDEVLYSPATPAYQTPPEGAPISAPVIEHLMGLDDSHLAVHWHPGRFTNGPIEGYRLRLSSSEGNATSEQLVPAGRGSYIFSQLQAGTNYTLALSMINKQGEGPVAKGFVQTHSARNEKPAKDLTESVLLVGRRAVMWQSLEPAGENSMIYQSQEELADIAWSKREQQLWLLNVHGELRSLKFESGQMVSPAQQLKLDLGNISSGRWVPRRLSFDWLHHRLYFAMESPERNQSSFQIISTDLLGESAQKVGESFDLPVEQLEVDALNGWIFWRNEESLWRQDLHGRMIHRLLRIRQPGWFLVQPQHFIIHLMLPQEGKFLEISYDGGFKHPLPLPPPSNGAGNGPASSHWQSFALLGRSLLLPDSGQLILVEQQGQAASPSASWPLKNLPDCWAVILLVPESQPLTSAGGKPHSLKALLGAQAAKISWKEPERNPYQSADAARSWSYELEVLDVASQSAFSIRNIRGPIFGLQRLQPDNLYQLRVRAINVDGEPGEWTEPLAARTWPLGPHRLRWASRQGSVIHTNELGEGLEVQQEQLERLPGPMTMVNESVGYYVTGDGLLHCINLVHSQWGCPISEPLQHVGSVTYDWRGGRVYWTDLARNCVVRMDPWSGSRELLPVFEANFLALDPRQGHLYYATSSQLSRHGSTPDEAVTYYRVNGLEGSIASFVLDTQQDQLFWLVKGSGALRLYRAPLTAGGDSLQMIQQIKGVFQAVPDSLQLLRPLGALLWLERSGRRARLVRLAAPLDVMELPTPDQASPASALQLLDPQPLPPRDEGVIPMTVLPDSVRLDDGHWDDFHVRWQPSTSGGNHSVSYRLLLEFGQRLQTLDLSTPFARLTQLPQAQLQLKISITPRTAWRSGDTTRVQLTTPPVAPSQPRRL

Kd [1]: 4.4 µM | Kd [2]: 3 to 5 µM
B1: BOSS ECR (102-510), His-tag cleaved (domain or fragment, Drosophila, UniProt P22815 102-510, looked up)
chain: GTTASLVPEICLNGLQLTVNSADEGTVIRKQEEFVKILEGDVVLSVLTKDPDSALFVINRVNQANLIMADFEIGIRAISIDNASLAENLLIQEVQFLQQCTTYSMGIFVDWELYKQLESVIKDLEYNIWPIPGTRAHLFPKVAHLLHQMPWGEKIASVEIATETLEMYNEFMEAARQEHMCLMHFKSDDNVYIMFGNKLASHFKENGTLFSVPTDRTDDEFLADLPNRAFVLMENEIDLSTAVELDATPTALDEILIGKSVLPSRVLSFAGSIIDLMNWLRGSLSKHCKRGEEHDLYVLESCFNFLNFIEDWRTSEYRQAHDTAEILSLLLMRKLGTAMNFQMYQKKVLTLDKITGESRTELREIASQNFVTNVTTYYHYNRDNHTSLELKTKFGQVFNCQYSAGDNRR

From doi:10.1101/2024.03.13.584817 (bioRxiv, 2024)
